Experiment [1] in a line: TICA1 Ala-scan with intact disulfides, activity vs TICA1. The settings on record: single amino acid substituted by alanine. An excerpt:
Every single amino acid was substituted by alanine except for cysteine. […] See also FIG. 6.

Experiment [2] is described as follows: TICA1: dependence of activity on disulfides (FIG. 5). The settings on record: relative to TICA1 with 3 disulfides = 100%. An excerpt:
FIG. 5: Thermostable Inhibitor of Coagulation Activation (TICA1): Dependence on Disulfides.

For experiment [3], the target named is T1, h-FXIIa (human, UniProt P00748 20-615).
T1 construct: also called factor XIIa
T1 sequence (looked up): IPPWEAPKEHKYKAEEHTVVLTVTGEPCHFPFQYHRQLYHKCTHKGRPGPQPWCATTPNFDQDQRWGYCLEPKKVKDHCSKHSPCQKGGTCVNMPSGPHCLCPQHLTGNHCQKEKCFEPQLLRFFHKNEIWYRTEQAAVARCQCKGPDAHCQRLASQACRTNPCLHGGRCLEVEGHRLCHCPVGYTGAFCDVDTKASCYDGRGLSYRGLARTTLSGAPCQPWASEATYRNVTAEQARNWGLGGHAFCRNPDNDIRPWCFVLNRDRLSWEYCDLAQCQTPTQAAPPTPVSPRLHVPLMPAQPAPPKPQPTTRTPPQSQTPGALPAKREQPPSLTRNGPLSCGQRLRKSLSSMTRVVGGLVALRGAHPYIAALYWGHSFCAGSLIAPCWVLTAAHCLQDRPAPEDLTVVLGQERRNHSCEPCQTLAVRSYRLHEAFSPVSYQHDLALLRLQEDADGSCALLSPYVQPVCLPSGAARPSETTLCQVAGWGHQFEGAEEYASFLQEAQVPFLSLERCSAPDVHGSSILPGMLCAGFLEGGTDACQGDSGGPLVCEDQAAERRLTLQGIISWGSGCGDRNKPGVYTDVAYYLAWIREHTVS
The experiment can be described thus: S2302 hydrolysis by h-FXIIa (5.01 nM); inhibitor kept at -80° C. The procedure:
(§1) Stock FXIIa was diluted 700× in BSA5. The inhibitor was diluted in BSA5 as indicated. Wells contained 70 μl diluted FXIIa (5 nM final), 70 μl inhibitor and 20 μl S2302 (475 or 462.5 μM final). The reaction was started after 5 min heating on the heating plate with S2302. Filters 405 nm and 490 nm reference. Found ΔmA/min was multiplied by 2.14 to get the figure for a 1 cm path.

The target in experiment [4] is T1, h-FXIIa. The experiment can be described thus: S2302 hydrolysis by h-FXIIa (5 nM), fit of residual activity; dissociation constant of the complex. As to the method:
(§2) Stock FXIIa was diluted 700× in BSA5. The inhibitor was diluted in BSA5 as indicated. Wells contained 70 μl diluted FXIIa (5 nM final), 70 μl inhibitor and 20 μl S2302 (475 or 462.5 μM final). The reaction was started after 5 min heating on the heating plate with S2302. Filters 405 nm and 490 nm reference. Found mΔA/min was multiplied by 2.14 to get the figure for a 1 cm path.
(§3) in which E=[FXIIa], Ki is the dissociation constant, I=[Inhibitor], kcat and Km are Michaelis constants and S=[S2302].

Experiment [5] concerns the target T1, h-FXIIa. The experiment is described as follows: S2302 hydrolysis by h-FXIIa, fit of residual activity. As to the method:
as §2, §3

Experiment [6] has as its target T1, h-FXIIa. The experiment is described as follows: S2302 hydrolysis by h-FXIIa (5.01 nM); inhibitor 30 min 95° C. The procedure:
as §1

Experiment [7] addresses T1, h-FXIIa. The experiment can be described thus: S2302 hydrolysis by h-FXIIa (5.01 nM); inhibitor at RT during 72 hrs, against -80° C. As to the method:
as §1

The target of experiment [8] is T1, h-FXIIa. The experiment is described as follows: S2302 hydrolysis by h-FXIIa (5.01 nM); inhibitor at RT during 72 hrs. As to the method:
as §1

The target in experiment [9] is T1, h-FXIIa. The experiment can be described thus: S2302 hydrolysis by h-FXIIa (5.01 nM); inhibitor 30 min 95° C., against -80° C. The procedure: as §1
The target of experiment [10] is T1, h-FXIIa. The experiment can be described thus: S2302 hydrolysis by h-FXIIa (5.01 nM); inhibitor kept at -80° C. (reference). As to the method:
as §1

For the molecule `CC[C@H](C)[C@@H]1NC(=O)[C@H](CCCNC(=N)N)NC(=O)[C@@H]2CCCN2C(=O)[C@@H](NC(=O)[C@@H](NC(=O)[C@@H](N)CCCNC(=N)N)C(C)C)CSSC[C@@H]2NC(=O)[C@H](CCC(=O)O)NC(=O)[C@H](C)NC(=O)[C@H](CC(C)C)NC(=O)[C@@H]3CSSC[C@@H](C(=O)NCC(=O)O)NC(=O)[C@H](Cc4ccc(O)cc4)NC(=O)CNC(=O)[C@H](Cc4c[nH]cn4)NC(=O)[C@H](CCC(=O)O)NC(=O)[C@H](CC(C)C)NC(=O)[C@H](CSSC[C@H](NC(=O)[C@H](CCCCN)NC(=O)[C@H](CCSC)NC(=O)[C@H](CC(C)C)NC1=O)C(=O)N[C@@H](CCCCN)C(=O)N[C@@H](CCCCN)C(=O)N[C@@H](CC(=O)O)C(=O)N[C@@H](CO)C(=O)N[C@@H](CC(=O)O)C(=O)N3)NC(=O)[C@H](C(C)C)NC2=O` [TICA1], the “Activity vs TICA1” value in experiment [1] is on record as 100%. The activity in experiment [2] was 100%.

B1: Corn trypsin inhibitor (other, UniProt P01088 29-138, looked up)
chain: SAGTSCVPGWAIPHNPLPSCRWYVTSRTCGIGPRLPWPELKRRCCRELADIPAYCRCTALSILMDGAIPPGPDAQLEGRLEDLPGCPREVQRGFAATLVTEAECNLATIS
notes: also called CTI
Regarding B1, the Ki with h-FXIIa [3] turned out to be 3.59 nM; with h-FXIIa [4], 2.9 nM; with h-FXIIa [5], 2.9 nM; in the experiment with h-FXIIa [6], 5.1 nM; in the experiment with h-FXIIa [8], 4.19 nM. Also, the “Res. Act. (%)” value stood at 86% with h-FXIIa [7], 70% with h-FXIIa [9] and 100% in the experiment with h-FXIIa [10].

A word on the Ki: it is a dissociation constant, usually derived from enzyme kinetics or from competition with a known ligand.

Source of the values: patent publication US20140296146A1, “Thermostable Inhibitors of Activation of the Blood Clotting System Through Contact with Foreign Surfaces” (Synapse B.V., priority 2011, published 2014).
